How the values were obtained:
[1] = molecular target: T1, mutated human CRTH2 with amino acid substitution (Homo sapiens, UniProt Q9Y5Y4, G192A); experiment: Epitope analysis using CHO-S cells which express mutated human CRTH2 with amino acid substitution; format: binding; settings: mutant G192A; antibody 10 μg/mL; relative to wild-type = 100%
T1 construct: inserting genes encoding various mutants with amino acid substitution obtained by deleting termination codons; expressed in transfected cells; host or cells: CHO-S cells (Lifetechnologies), transient (phmAG1-MNLinker vector)
T1 sequence (Q9Y5Y4 1-395 G192A): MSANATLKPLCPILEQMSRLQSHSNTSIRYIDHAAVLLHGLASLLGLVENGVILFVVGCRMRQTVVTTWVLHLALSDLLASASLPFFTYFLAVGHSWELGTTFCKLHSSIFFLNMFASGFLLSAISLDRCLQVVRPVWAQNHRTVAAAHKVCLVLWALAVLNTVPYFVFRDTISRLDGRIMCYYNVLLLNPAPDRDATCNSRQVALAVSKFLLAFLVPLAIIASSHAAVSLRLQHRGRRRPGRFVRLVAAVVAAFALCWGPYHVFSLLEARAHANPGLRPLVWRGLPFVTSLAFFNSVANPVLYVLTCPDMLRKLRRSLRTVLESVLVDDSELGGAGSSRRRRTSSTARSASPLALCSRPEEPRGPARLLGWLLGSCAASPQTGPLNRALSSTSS
Summary of the method: (§1)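 CHO-S cells transiently expressing alanine-substituted human CRTH2 extracellular mutants, C-terminally Azami-Green tagged, 24 h post-transfection. Antibodies at 10 μg/mL, 4 °C 1 h, then Alexa647 anti-IgG secondary 4 °C 1 h; flow cytometry on Azami-Green-positive cells. Reactivity = Alexa647 intensity divided by Azami-Green intensity.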

[2] = molecular target: T2, mutated human CRTH2 with amino acid substitution (Homo sapiens, UniProt Q9Y5Y4, L187A/L188A/L189A); experiment: as above; format: binding; settings: mutant L187A, L188A, and L189A; antibody 10 μg/mL; relative to wild-type = 100%
T2 construct: inserting genes encoding various mutants with amino acid substitution obtained by deleting termination codons; expressed in transfected cells; host or cells: CHO-S cells (Lifetechnologies), transient (phmAG1-MNLinker vector)
T2 sequence (Q9Y5Y4 1-395 L187A/L188A/L189A): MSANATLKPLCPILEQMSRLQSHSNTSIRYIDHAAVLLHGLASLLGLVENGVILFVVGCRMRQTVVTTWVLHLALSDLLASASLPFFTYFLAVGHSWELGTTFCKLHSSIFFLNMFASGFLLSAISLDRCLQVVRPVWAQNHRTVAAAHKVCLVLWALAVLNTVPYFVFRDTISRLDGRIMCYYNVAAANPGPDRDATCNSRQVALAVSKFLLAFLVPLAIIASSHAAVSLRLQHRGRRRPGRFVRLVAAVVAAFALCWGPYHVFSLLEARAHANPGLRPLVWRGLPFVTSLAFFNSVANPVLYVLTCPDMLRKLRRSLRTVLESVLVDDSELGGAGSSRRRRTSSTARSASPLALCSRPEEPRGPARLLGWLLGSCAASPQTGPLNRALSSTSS
Summary of the method: as §1

reactivity against cells expressing mutated human CRTH2 [1]: lost
reactivity against cells expressing mutated human CRTH2 [2]: lost
B1: LV0HV1: humanized Lym2 antibody, VL LV0 (SEQ ID NO: 33), VH HV1 (SEQ ID NO: 51) (antibody, V domains shown)
VH: EVQLVESGGGVVQPGRSLRLSCAASGFTFSNYYMAWVRQAPGKGLEWVATISYDGSSTYYRDSVKGRFTISRDNAKNSLYLQMNSLRAEDTATYYCARHRGYYYSGAGYFDYWGQGTMVTVSS
VL: DIVMTQTPLSLPVTPGESASISCRSSQSLEYSDGYTYLEWYLQKPGQSPQVLIYGVSNRFSGVPDRFSGSGSGTDFTLKISRVEAEDVGVYYCFQATHDPLTFGQGTKLEIK

Source: patent US10100120B2, “Antibody which specifically binds to human CRTH2” (KYOWA HAKKO KIRIN CO., LTD, priority 2015, dated 2018)
